Measured values published in IntAct's records for PubMed 22705394.

B1: Ras-related protein Rab-21 (Homo sapiens), Q9UL25 (parent)
chain: MAAAGGGGGGAAAAGRAYSFKVVLLGEGCVGKTSLVLRYCENKFNDKHITTLQASFLTKKLNIGGKRVNLAIWDTAGQERFHALGPIYYRDSNGAILVYDITDEDSFQKVKNWVKELRKMLGNEICLCIVGNKIDLEKERHVSIQEAESYAESVGAKHYHTSAKQNKGIEELFLDLCKRMIETAQVDERAKGNGSSQPGTARRGVQIIDDEPQAQTSGGGCCSSG

Variants of: B1
Conditions: with macf1_human MACF1, Q9UPN3

Variant | effect of a mutation on the interaction
MAAAGGGGGGAAAAGRAYSFKVVLLGEGCVGKNSLVLRYCENKFNDKHITTLQASFLTKKLNIGGKRVNLAIWDTAGQERFHALGPIYYRDSNGAILVYDITDEDSFQKVKNWVKELRKMLGNEICLCIVGNKIDLEKERHVSIQEAESYAESVGAKHYHTSAKQNKGIEELFLDLCKRMIETAQVDERAKGNGSSQPGTARRGVQIIDDEPQAQTSGGGCCSSG [T33N] | decreasing interaction

Variants of: B1
Conditions: with MACF1, Q9UPN3-1

Variant | effect of a mutation on the interaction
MAAAGGGGGGAAAAGRAYSFKVVLLGEGCVGKNSLVLRYCENKFNDKHITTLQASFLTKKLNIGGKRVNLAIWDTAGQERFHALGPIYYRDSNGAILVYDITDEDSFQKVKNWVKELRKMLGNEICLCIVGNKIDLEKERHVSIQEAESYAESVGAKHYHTSAKQNKGIEELFLDLCKRMIETAQVDERAKGNGSSQPGTARRGVQIIDDEPQAQTSGGGCCSSG [T33N] | decreasing interaction
